Experimental data taken from patent US20200002439A1 (GENSUN BIOPHARMA, published 2020).

T1: recombinant human Ang2 (human, UniProt O15123 19-496)
T1 construct: also called Ang2 (R&D)
T1 sequence (looked up): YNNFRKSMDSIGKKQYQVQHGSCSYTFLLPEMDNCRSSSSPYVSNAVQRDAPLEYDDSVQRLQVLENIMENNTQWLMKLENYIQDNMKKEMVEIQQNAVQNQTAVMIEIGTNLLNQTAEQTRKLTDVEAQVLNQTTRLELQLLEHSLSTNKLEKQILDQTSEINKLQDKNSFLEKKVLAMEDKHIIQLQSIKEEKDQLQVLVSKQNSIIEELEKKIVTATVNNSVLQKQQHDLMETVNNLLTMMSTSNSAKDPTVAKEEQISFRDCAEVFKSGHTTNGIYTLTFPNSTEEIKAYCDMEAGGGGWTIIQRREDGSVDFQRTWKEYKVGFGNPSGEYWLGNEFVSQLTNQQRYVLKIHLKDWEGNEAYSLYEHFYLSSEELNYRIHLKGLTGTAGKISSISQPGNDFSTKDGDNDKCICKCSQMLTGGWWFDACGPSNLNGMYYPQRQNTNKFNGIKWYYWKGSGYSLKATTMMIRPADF

T2: His tagged human Angiopoietin-2 (human, UniProt O15123 19-496, limits assumed)
T2 construct: Antigen of the bio-layer interferometry experiments; also called Ang-2; Ang2
T2 sequence (looked up): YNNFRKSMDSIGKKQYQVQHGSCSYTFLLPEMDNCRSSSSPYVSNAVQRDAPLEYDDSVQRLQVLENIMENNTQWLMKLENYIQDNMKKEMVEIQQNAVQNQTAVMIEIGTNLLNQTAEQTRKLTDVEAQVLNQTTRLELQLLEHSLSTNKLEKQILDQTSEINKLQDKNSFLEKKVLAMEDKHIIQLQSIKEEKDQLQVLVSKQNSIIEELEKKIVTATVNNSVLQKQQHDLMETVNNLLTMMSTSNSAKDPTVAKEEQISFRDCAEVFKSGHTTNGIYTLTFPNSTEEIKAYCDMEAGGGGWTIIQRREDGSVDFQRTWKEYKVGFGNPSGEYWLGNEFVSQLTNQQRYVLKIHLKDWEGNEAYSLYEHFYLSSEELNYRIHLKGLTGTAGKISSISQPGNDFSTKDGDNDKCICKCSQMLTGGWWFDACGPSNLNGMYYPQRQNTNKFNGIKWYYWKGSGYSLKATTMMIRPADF


Assays:
[1] = molecular target: T3, recombinant human VEGF 165 (human, UniProt P15692-4 27-191); assay: cell-based or functional assay
[2] = molecular target: T3, recombinant human VEGF 165; assay: cell-based or functional assay; remark: listed apart in the source
[3] = molecular target: T3, recombinant human VEGF 165; assay: bio-layer interferometry, rhVEGF165
recombinant human Ang2 = molecular target: T1, recombinant human Ang2; assay: blocking ELISA: Ang2 coated on the plate, binding of recombinant human Tie2 is blocked
His tagged human PD-1 [4] = molecular target: T4, His tagged human PD-1 (human, UniProt Q15116 25-170); assay: bio-layer interferometry, PD-1-His (R&D); column head prints KD (nM) but the cell carries E-09, and Kd/Ka of the same row gives this number in M
T4 construct: also called His tagged human PD-I; PD-1 protein

[5] = molecular target: T2, His tagged human Angiopoietin-2; assay: bio-layer interferometry, rhAng2-His
His tagged human PD-1 [6] = molecular target: T4, His tagged human PD-1; assay: bio-layer interferometry, PD-1-His (R&D)
[7] = molecular target: T5, human PD-1 on transfected CHO-K1 cells (human, UniProt Q15116 25-288); assay: cell-based blocking assay, flow cytometry: binding of FITC labeled human PD-L1-Fc to human PD-1 transfected CHO-K1 cells is blocked
T5 construct: also called Human PD-1 transfected CHO-K1 cells
T5 sequence (Q15116 25-288 limits assumed): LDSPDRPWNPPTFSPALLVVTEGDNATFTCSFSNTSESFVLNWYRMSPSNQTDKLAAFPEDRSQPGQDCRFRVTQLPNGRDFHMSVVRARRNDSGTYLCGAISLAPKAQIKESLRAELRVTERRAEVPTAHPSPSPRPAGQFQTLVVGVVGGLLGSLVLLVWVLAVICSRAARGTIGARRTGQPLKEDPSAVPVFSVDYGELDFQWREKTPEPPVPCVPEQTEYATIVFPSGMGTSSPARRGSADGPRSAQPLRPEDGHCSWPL

T3 sequence (P15692 other isoform, or with tags, fused parts or gaps limits assumed): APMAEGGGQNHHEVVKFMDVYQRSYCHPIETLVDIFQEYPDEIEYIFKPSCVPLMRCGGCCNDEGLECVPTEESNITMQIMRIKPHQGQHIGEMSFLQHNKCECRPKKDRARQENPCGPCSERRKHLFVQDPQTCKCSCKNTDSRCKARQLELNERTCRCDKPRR
T4 sequence (Q15116 25-170 limits assumed): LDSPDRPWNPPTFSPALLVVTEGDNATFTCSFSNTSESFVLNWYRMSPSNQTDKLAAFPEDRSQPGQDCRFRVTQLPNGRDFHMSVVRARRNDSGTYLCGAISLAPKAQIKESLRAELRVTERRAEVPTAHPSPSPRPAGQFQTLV

IC50 (read off the curve) [1] [pM] | IC50 (VEGF-induced luciferase signal, cell based VEGF neutralization assay on VEGFR-2 reporter cells) [2] [pM] | Kd [3] [pM] | koff [3] [s⁻¹] | kon [3] [M⁻¹ s⁻¹] | IC50 (recombinant human Ang2) [pM] | Kd (His tagged human PD-1 [4]) [pM] | Kd [5] [pM] | koff [5] [s⁻¹] | kon [5] [M⁻¹ s⁻¹] | koff (His tagged human PD-1 [6]) [s⁻¹] | kon (His tagged human PD-1 [6]) [M⁻¹ s⁻¹] | IC50 [7] [pM] | Binder
~100 | 140 |  |  |  |  |  |  |  |  |  |  |  | Bi-ZP-2 (bispecific antibody, human IgG1, kappa, N297A) heavy: not shown light: DIQMTQSPSFLSASVGDRVTITCKASQNVGTNVAWYQQKPGKAPKALIYSASYRYSGVPSRFSGSGSGTEFTLTISSLQPEDFATYYCQQYYSYPYTFGQGTKLEIKRTVAAPSVFIFPPSDEQLKSGTASVVCLLNNFYPREAKVQWKVDNALQSGNSQESVTEQDSKDSTYSLSSTLTLSKADYEKHKVYACEVTHQGLSSPVTKSFNRGEC
 |  | 4.9 | 5e-06 | 1.02e+06 | 600 | 3840 | 700 | 9.05e-05 | 130000 | 0.00147 | 382000 | 650 | TS-ZPT-3L(2P17) (other) heavy: QVQLVQSGAEVKKPGASVKVSCKASGYTFTSYYIHWVRQAPGQGLEWMGWIFPGSGNSKYNENFKGRVTLTADTSTSTVYMELSSLRSEDTAVYYCASETYDYGDYWGQGTLVTVSSASTKGPSVFPLAPCSRSTSESTAALGCLVKDYFPEPVTVSWNSGALTSGVHTFPAVLQSSGLYSLSSVVTVPSSSLGTKTYTCNVDHKPSNTKVDKRVESKYGPPCPPCPAPEFLGGPSVFLFPPKPKDTLMISRTPEVTCVVVDVSQEDPEVQFNWYVDGVEVHNAKTKPREEQFNSTYRVVSVLTVLHQDWLNGKEYKCKVSNKGLPSSIEKTISKAKGQPREPQVYTLPPSQEEMGGAQQEECEWDPWTCEHMGSGSATGGSGSTASSGSGSATHQEECEWDPWTCEHMGGTKNQVSLTCLVKGFYPSDIAVEWESNGQPENNYKTTPPVLDSDGSFFLYSRLTVDKSRWQEGNVFSCSVMHEALHNHYTQKSLSLSLGKGGGGSGGGGSGGGGSSDTGRPFVEMYSEIPEIIHMTEGRELVIPCRVTSPNITVTLKKFPLDTLIPDGKRIIWDSRKGFIISNATYKEIGLLTCEATVNGHLYKTNYLTHRQTNTIIDVVLSPSHGIELSVGEKLVLNCTARTELNVGIDFNWEYPSSKHQHKKLVNRDLKTQSGSEMKKFLSTLTIDGVTRSDQGLYTCAASSGLMTKKNSTFVRVHEK light: DIQMTQSPSFLSASVGDRVTITCKASQNVGTNVAWYQQKPGKAPKALIYSASYRYSGVPSRFSGSGSGTEFTLTISSLQPEDFATYYCQQYYSYPYTFGQGTKLEIKRTVAAPSVFIFPPSDEQLKSGTASVVCLLNNFYPREAKVQWKVDNALQSGNSQESVTEQDSKDSTYSLSSTLTLSKADYEKHKVYACEVTHQGLSSPVTKSFNRGEC
 |  | 6.3 | 4.31e-06 | 683000 |  | 4760 |  |  |  | 0.00159 | 335000 | 430 | TS-ZPT-3S(2P16) (other) chain 1: QVQLVQSGAEVKKPGASVKVSCKASGYTFTTYYIYWVRQAPGQGLEWMGGINPGNGGTNFNEKFKIRVTMTRDTSISTAYMELSSLRSEDTAVYYCARRYHGYDGGLDYWGQGTLVTVSSASTKGPSVFPLAPCSRSTSESTAALGCLVKDYFPEPVTVSWNSGALTSGVHTFPAVLQSSGLYSLSSVVTVPSSSLGTKTYTCNVDHKPSNTKVDKRVESKYGPPCPPCPAPEFLGGPSVFLFPPKPKDTLMISRTPEVTCVVVDVSQEDPEVQFNWYVDGVEVHNAKTKPREEQFNSTYRVVSVLTVLHQDWLNGKEYKCKVSNKGLPSSIEKTISKAKGQPREPQVYTLPPSQEEMGGQEECEWDPWTCEHMGGTKNQVSLTCLVKGFYPSDIAVEWESNGQPENNYKTTPPVLDSDGSFFLYSRLTVDKSRWQEGNVFSCSVMHEALHNHYTQKSLSLSLGKGGGGSGGGGSGGGGSSDTGRPFVEMYSEIPEIIHMTEGRELVIPCRVTSPNITVTLKKFPLDTLIPDGKRIIWDSRKGFIISNATYKEIGLLTCEATVNGHLYKTNYLTHRQTNTIIDVVLSPSHGIELSVGEKLVLNCTARTELNVGIDFNWEYPSSKHQHKKLVNRDLKTQSGSEMKKFLSTLTIDGVTRSDQGLYTCAASSGLMTKKNSTFVRVHEK chain 2: DIVLTQSPASLAVSPGQRATITCRASKSVSTSGFSYIHWYQQKPGQPPKLLIYLASNLESGVPARFSGSGSGTDFTLTINPVEANDTANYYCQHTWELPNTFGGGTKVEIKRTVAAPSVFIFPPSDEQLKSGTASVVCLLNNFYPREAKVQWKVDNALQSGNSQESVTEQDSKDSTYSLSSTLTLSKADYEKHKVYACEVTHQGLSSPVTKSFNRGEC
 |  | 5.2 | 5.03e-06 | 974000 | 9340 | 3710 | 650 | 8.66e-05 | 134000 | 0.00146 | 394000 | 370 | TS-ZPT-3S(2P17) (other, Trispecific antagonist: 2P17 variable domains, single copy of the trebananib peptide within CH3, aflibercept domain at the carboxy terminus by a 3xG4S linker) heavy: QVQLVQSGAEVKKPGASVKVSCKASGYTFTSYYIHWVRQAPGQGLEWMGWIFPGSGNSKYNENFKGRVTLTADTSTSTVYMELSSLRSEDTAVYYCASETYDYGDYWGQGTLVTVSSASTKGPSVFPLAPCSRSTSESTAALGCLVKDYFPEPVTVSWNSGALTSGVHTFPAVLQSSGLYSLSSVVTVPSSSLGTKTYTCNVDHKPSNTKVDKRVESKYGPPCPPCPAPEFLGGPSVFLFPPKPKDTLMISRTPEVTCVVVDVSQEDPEVQFNWYVDGVEVHNAKTKPREEQFNSTYRVVSVLTVLHQDWLNGKEYKCKVSNKGLPSSIEKTISKAKGQPREPQVYTLPPSQEEMGGQEECEWDPWTCEHMGGTKNQVSLTCLVKGFYPSDIAVEWESNGQPENNYKTTPPVLDSDGSFFLYSRLTVDKSRWQEGNVFSCSVMHEALHNHYTQKSLSLSLGKGGGGSGGGGSGGGGSSDTGRPFVEMYSEIPEIIHMTEGRELVIPCRVTSPNITVTLKKFPLDTLIPDGKRIIWDSRKGFIISNATYKEIGLLTCEATVNGHLYKTNYLTHRQTNTIIDVVLSPSHGIELSVGEKLVLNCTARTELNVGIDFNWEYPSSKHQHKKLVNRDLKTQSGSEMKKFLSTLTIDGVTRSDQGLYTCAASSGLMTKKNSTFVRVHEK light: DIQMTQSPSFLSASVGDRVTITCKASQNVGTNVAWYQQKPGKAPKALIYSASYRYSGVPSRFSGSGSGTEFTLTISSLQPEDFATYYCQQYYSYPYTFGQGTKLEIKRTVAAPSVFIFPPSDEQLKSGTASVVCLLNNFYPREAKVQWKVDNALQSGNSQESVTEQDSKDSTYSLSSTLTLSKADYEKHKVYACEVTHQGLSSPVTKSFNRGEC
 |  |  |  |  |  |  |  |  |  |  |  | 370 | 2P17 (antibody, V domains shown, also called PD-06; parental antibody 2P17) VH: QVQLVQSGAEVKKPGASVKVSCKASGYTFTSYYIHWVRQAPGQGLEWMGWIFPGSGNSKYNENFKGRVTLTADTSTSTVYMELSSLRSEDTAVYYCASETYDYGDYWGQGTLVTVSS VL: DIQMTQSPSFLSASVGDRVTITCKASQNVGTNVAWYQQKPGKAPKALIYSASYRYSGVPSRFSGSGSGTEFTLTISSLQPEDFATYYCQQYYSYPYTFGQGTKLEIK
